Assay [1] deals with T1, murine SFRP5 (mouse, UniProt Q9WU66 22-314, limits assumed).
T1 construct: also called mouse SFRP5; muSFRP5
T1 sequence: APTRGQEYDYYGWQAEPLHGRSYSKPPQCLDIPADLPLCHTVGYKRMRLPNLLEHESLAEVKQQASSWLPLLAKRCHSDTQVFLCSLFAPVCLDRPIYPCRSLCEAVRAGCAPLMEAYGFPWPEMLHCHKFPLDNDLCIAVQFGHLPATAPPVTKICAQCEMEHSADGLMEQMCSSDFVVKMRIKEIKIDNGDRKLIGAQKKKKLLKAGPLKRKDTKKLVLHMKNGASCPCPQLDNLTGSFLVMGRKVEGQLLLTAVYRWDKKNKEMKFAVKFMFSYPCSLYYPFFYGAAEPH
Put plainly: kinetics; method not stated (Table 12, repeats Table 8).

In assay [2] the target is T1, murine SFRP5. Briefly: kinetics; method and SFRP5 construct not stated (Table 8).

B1: anti-SFRP5 monoclonal antibody subclone 24C18.3 (antibody, IgG2b, V domains shown)
VH: QVQLTQSGAELVRPGASVKLSCKASGYTFTDYYINWVKQRPGQGLEWIARIYPGSGNTYYNEKFKGKATLTAEKSSSTAYMQLSSLTSEDSAVYFCAAYSASAMDYWGQGTSVTVSS
VL: NVVLTQSPASLAVSLGQRATISCRASESVDSYGKSFMYWYQQKPGQPPKLLIYLANNLESGVPARFSGSGSRTDFTLTIDPVEADDAASYYCQQNNEDPWTFGGGTKLEIK
notes: also called mu24C18.3
On to B1, for which, in assay [1], the Kd was 0.658 nM, the koff stood at 7.36e-05 s⁻¹ and the kon was found to be 112000 M⁻¹ s⁻¹. Moreover, in assay [2], the Kd is 0.658 nM, the koff is 7.36e-05 s⁻¹ and the kon turned out to be 112000 M⁻¹ s⁻¹.

In general, Kd refers to the constant that tells how readily two partners part at equilibrium. A higher Kd goes with a looser complex. The koff is the rate constant with which the complex falls apart. A low value points to a long-lived complex. One may read the kon as the second-order rate constant of association. A low value points to slow association.

For the origin of these results see patent US20160024196A1 (Amgen, published 2016).
